In PMC6827562 (Structure (London, England : 1993), 2019):
Blank lines part the entries; values can stand above or below the molecule they belong to.

Legend:
[1] = target: PP-1c (Homo sapiens) (UniProt P62136); details: cited from earlier work
[2] = target: T1, Protein phosphatase-1cα (PP-1cα) (human, UniProt P62136 1-330); experiment: SEC-MALS
[3] = target: T1, Protein phosphatase-1cα (PP-1cα); experiment: crystal structure
[4] = target: p53 DBD (human, UniProt P04637 94-292); experiment: EMSA
Sequence of p53 DBD (P04637 94-292): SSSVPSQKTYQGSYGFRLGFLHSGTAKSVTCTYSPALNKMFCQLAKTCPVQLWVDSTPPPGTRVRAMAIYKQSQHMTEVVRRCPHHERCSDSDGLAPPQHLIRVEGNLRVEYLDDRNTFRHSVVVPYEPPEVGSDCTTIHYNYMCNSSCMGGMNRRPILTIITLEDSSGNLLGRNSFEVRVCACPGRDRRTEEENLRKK

T1 sequence (P62136 whole entry): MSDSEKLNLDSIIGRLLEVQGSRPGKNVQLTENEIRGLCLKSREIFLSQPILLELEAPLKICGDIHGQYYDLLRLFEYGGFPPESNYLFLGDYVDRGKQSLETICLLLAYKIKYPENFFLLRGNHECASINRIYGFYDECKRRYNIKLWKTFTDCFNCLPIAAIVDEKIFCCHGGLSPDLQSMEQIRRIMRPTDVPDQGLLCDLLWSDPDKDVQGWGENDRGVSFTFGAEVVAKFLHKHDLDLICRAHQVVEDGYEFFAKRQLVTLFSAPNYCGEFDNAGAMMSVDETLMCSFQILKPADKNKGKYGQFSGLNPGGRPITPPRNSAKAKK
Sequence of PP-1c (Homo sapiens) (P62136 2-330): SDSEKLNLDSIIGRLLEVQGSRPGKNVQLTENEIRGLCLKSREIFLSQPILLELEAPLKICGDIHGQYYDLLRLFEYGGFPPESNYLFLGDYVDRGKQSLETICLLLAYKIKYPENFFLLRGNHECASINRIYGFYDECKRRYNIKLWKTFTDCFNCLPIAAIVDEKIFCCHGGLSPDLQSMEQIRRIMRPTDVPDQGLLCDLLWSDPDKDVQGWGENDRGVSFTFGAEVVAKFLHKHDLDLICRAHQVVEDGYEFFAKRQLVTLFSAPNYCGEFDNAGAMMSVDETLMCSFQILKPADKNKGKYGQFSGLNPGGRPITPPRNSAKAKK

binding result [3]: binds
B2: iASPP_(608–828) (domain or fragment, human, UniProt Q8WUF5 608-828, looked up)
chain: RSVLRKAGSPRKARRARLNPLVLLLDAALTGELEVVQQAVKEMNDPSQPNEEGITALHNAICGANYSIVDFLITAGANVNSPDSHGWTPLHCAASCNDTVICMALVQHGAAIFATTLSDGATAFEKCDPYREGYADCATYLADVEQSMGLMNSGAVYALWDYSAEFGDELSFREGESVTVLRRDGPEETDWWWAALHGQEGYVPRNYFGLFPRVKPQRSKV

binding result [2]: binds
B3: ASPP2_(905–1128) (domain or fragment, human, UniProt Q13625 905-1128, looked up)
chain: RTNLRKTGSERIAHGMRVKFNPLALLLDSSLEGEFDLVQRIIYEVDDPSLPNDEGITALHNAVCAGHTEIVKFLVQFGVNVNAADSDGWTPLHCAASCNNVQVCKFLVESGAAVFAMTYSDMQTAADKCEEMEEGYTQCSQFLYGVQEKMGIMNKGVIYALWDYEPQNDDELPMKEGDCMTIIHREDEDEIEWWWARLNDKEGYVPRNLLGLYPRIKPRQRSLA

Continued, molecule first:

Molecule: iASPP (from UniProt Q8WUF5)
Kd [1]: 26 nM

B1: iASPP(621–828) (domain or fragment, human, UniProt Q8WUF5 621-828, looked up)
chain: RRARLNPLVLLLDAALTGELEVVQQAVKEMNDPSQPNEEGITALHNAICGANYSIVDFLITAGANVNSPDSHGWTPLHCAASCNDTVICMALVQHGAAIFATTLSDGATAFEKCDPYREGYADCATYLADVEQSMGLMNSGAVYALWDYSAEFGDELSFREGESVTVLRRDGPEETDWWWAALHGQEGYVPRNYFGLFPRVKPQRSKV
binding result [2]: binds

B4: PUMA p53 site (dsDNA)
DNA 1: CGCGCCTGCAAGTCCTGACTTGTCCGCGGC
DNA 2: GCCGCGGACAAGTCAGGACTTGCAGGCGCG
binding result [4]: binds
